Reference: patent US20260176378A1 (DYAX, published 2026)
Where a chain is given by its changes, count along the chain named. Blank lines part the entries; values can stand above or below the binder they belong to.

Target: T1, human plasma kallikrein (human, UniProt P03952 20-390; P03952 391-638)
T1 construct: two disulfide-linked chains; NP_000883.2; also called pKal; hpKal
Experiment: ELISA, biotinylated pKal signal over streptavidin background

T1 sequence (P03952 20-390 limits assumed, chain 1 of 2): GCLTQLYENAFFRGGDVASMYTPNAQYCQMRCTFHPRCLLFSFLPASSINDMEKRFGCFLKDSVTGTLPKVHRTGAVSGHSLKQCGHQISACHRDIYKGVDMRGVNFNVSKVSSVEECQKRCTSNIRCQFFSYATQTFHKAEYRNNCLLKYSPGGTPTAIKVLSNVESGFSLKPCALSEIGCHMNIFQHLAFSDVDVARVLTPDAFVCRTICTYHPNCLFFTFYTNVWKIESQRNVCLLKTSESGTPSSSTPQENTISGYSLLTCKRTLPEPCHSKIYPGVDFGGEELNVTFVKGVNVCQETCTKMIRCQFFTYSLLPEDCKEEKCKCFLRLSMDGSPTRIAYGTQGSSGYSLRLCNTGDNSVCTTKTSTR
T1 sequence (P03952 391-638 limits assumed, chain 2 of 2): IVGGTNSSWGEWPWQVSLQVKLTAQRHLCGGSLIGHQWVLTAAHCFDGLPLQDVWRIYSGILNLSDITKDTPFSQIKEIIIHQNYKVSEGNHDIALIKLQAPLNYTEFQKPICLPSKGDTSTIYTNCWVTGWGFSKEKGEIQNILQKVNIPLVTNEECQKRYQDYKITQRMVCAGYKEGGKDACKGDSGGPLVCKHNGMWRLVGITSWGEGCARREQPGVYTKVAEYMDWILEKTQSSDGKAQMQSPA

ELISA (T/B): 18
B1: M12-B04 (Fab, V domains shown)
VH: EVQLLESGGGLVQPGGSLRLSCAASGFTFSLYSMYWVRQAPGKGLEWVSRIRPSGGGTVYADSVKGRFTISRDNSKNTLYLQMNSLRAEDTAVYYCARDPLYSSGDVWGQGTTVTVSS
VL: DIQMTQSPSSLSASVGDRVTITCRASQGIRNDLGWYQHKPGKAPKLLIYAASILQSGVPSRFSGTASGTDFTLTISSLQPEDFATYFCLQDYEYPLTFGGGTKLDIK

ELISA (T/B): 9.9
B2: M12-D10 (Fab, V domains shown)
VH: EVQLLESGGGLVQPGGSLRLSCAASGFTFSNYPMDWVRQAPGKGLEWVSSISSSGGWTNYADSVKGRFTISRDNSKNTLYLQMNSLRAEDTAVYYCATDTSGSYLGFDYWGQGTLVTVSS
VL: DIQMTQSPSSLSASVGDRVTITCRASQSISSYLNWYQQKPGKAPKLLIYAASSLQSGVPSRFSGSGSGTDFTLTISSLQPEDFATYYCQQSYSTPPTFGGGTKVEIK

ELISA (T/B): 40.4
B12: M12-A08 (Fab, V domains shown)
VH: EVQLLESGGGLVQPGGSLRLSCAASGFTFSWYYMGWVRQAPGKGLEWVSWIVSSGGLTLYADSVKGRFTISRDNSKNTLYLQMNSLRAEDTAMYYCARTTVTTGDAFDIWGQGTMVTVSS
VL: DIQMTQSPSSLSASVGDRVTITCRASQSISRYLNWYQQKPGKAPKLLIYAASTLETGVPSRFSGSGSGTDFTLTITTLQPEDFVIYYCQQSYSTPYTFGQGTKLEIK

ELISA (T/B): 8.3
B14: M12-C10 (Fab, V domains shown)
VH: EVQLLESGGGLVQPGGSLRLSCAASGFTFSDYEMHWVRQAPGKGLEWVSGISPSGGKTQYADSVKGRFTISRDNSKNTLYLQMNSLRAEDTAVYYCARDLKWGGRGSPDWYFDLWGRGTLVTVSS
VL: QSALTQPPSVSVSPGQTASITCSGDKLGEKYVSWYQQKPGQSPVVVIYQDNKRPSGIPERFSGSNSGNTATLTISGTQAVDEADYYCQAWDSYTVVFGGGSKLTVLG

ELISA (T/B): 12.4
B15: M27-H10 (Fab, V domains shown)
VH: EVQLLESGGGLVQPGGSLRLSCAASGFTFSAYQMAWVRQAPGKGLEWVSVIYSSGGYTDYADSVKGRFTISRDNSKNTLYLQMNSLRAEDTAVYYCARHNWNDGAFDIWGQGTMVTVSS
VL: DIQMTQSPSSLSASVGDRVTITCRASQSISNYLNWYQQKPGKAPKFLIYAASSLQSGVPSRFSGSGSGTDFTLSISSLQPEDFATYYCQQSYSTPQTFGQGTKVEMK

ELISA (T/B): 4.1
B16: M27-G04 (Fab, V domains shown)
VH: EVQLLESGGGLVQPGGSLRLSCAASGFTFSAYYMVWVRQAPGKGLEWVSYISPSGGQTQYADSVKGRFTISRDNSKNTLYLQMNSLRAEDTAVYYCAREAISSSSFDYWGQGTLVTVSS
VL: DIQMTQSPSSLSASVGDRVTITCRASQRISYYLTWYQQKPGKVPKLLIYAASSLESGVPSRFSGSGSGTDFTLTISNLQPEDFATYYCQQAFSTPFTFGGGTKVEIK

The next lines start with the binder.

B3: M27-F04 (Fab, V domains shown)
VH: EVQLLESGGGLVQPGGSLRLSCAASGFTFSWYPMTWVRQAPGKGLEWVSSIGPSGGQTIYADSVKGRFTISRDNSKNTLYLQMNSLRAEDTAVYYCTTEYGDYGGGFDPWGQGTLVTVSS
VL: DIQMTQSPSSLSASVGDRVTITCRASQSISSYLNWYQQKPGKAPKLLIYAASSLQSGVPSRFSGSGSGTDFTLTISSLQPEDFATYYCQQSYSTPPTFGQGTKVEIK
ELISA (T/B): 10.5

B4: M12-E06 (Fab, V domains shown)
VH: EVQLLESGGGLVQPGGSLRLSCAASGFTFSQYKMLWVRQAPGKGLEWVSGIGPSGGLTAYADSVKGRFTISRDNSKNTLYLQMNSLRAEDTAVYYCARAPWFGELGMDVWGQGTTVTVSS
VL: DIQMTQSPSSLSASVGDRVSITCRASQSISTYLNWYQHKPGKAPTLLIYGAFSLQSGVPSRFSGSGSGTDFALTISSLQPEDFATYYCQQSHSTPPTFGQGTRVEIK
ELISA (T/B): 48

B5: M27-B01 (Fab, V domains shown)
VH: EVQLLESGGGLVQPGGSLRLSCAASGFTFSDYTMWWVRQAPGKGLEWVSSISSSGGITFYADSVKGRFTISRDNSKNTLYLQMNSLRAEDTAVYYCARSADTAMGGAFDIWGQGTMVTVSS
VL: not shown
ELISA (T/B): 33.1

B6: M27-F11 (Fab, V domains shown)
VH: EVQLLESGGGLVQPGGSLRLSCAASGFTFSSYHMMWVRQAPGKGLEWVSSIYPSGGATMYADSVKGRFTISRDNSKNTLYLQMNSLRAEDTAMYYCARDGYHYGDYTYFQHWGQGTLVTVSS
VL: DIQMTQSPSFLSASVGDRVTITCRASQGISSYLAWYQQKPGKAPKLLIYAASSLQSGVPSRFSGSGSGTDFTLTISSLQPEDFATYYCQQSYNTLRTFGPGTKVDLK
ELISA (T/B): 10

B7: M27-G09 (Fab, V domains shown)
VH: EVQLLESGGGLVQPGGSLRLSCAASGFTFSEYDMAWVRQAPGKGLEWVSYIVSSGGFTSYADSVKGRFTISRDNSKNTLYLQMNSLRAEDTAVYYCTTWAGWIAAADYWGQGTLVTVSS
VL: DIQMTQSPSSVSASVGDRITITCRTRQSISNYLNWYQQKPGEPPKLLIFAASSLQSGVPSRFSGSGTGTEFTLTISSLQPEDLAIYYCQQSYDIPFTFGQGTKLEIK
ELISA (T/B): 2.2

B8: M27-E03 (Fab, V domains shown)
VH: EVQLLESGGGLVQPGGSLRLSCAASGFTFSSYMMHWVRQAPGKGLEWVSGIYPSGGWTDYADSVKGRFTISRDNSKNTLYLQMNSLRAEDTATYYCARLVAGLDAFDIWGQGTMVTVSS
VL: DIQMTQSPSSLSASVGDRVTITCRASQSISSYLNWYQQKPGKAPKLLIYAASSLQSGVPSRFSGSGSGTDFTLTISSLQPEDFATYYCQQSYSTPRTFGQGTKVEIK
ELISA (T/B): 35.9

B9: M27-A10 (Fab, V domains shown)
VH: EVQLLESGGGLVQPGGSLRLSCAASGFTFSWYRMDWVRQAPGKGLEWVSSIWPSGGLTSYADSVKGRFTISRDNSKNTLYLQMNSLRAEDTAVYYCARGWAPGGDAFDIWGQGTMVTVSS
VL: DIQMTQSPSSLSASVGDRVTITCRASQSISAYLNWYQQKPGKAPQLLMYGVGSLQSGVPSRFSGSGSGTDFTLTISSLQPEDFATYFCQQGYTTPVTFGGGTKVEIK
ELISA (T/B): 3.2

B10: M12-C09 (Fab, V domains shown)
VH: EVQLLESGGGLVQPGGSLRLSCAASGFTFSSYAMVWVRQAPGKGLEWVSSIGSSGGFTLYADSVKGRFTISRDNSKNTLYLQMNSLRAEDTAVYYCASMNLGGGDAFDIWGQGTMVTVSS
VL: DIQMTQSPSSLSASVGDRVTITCRASQSIGIYLNWYHQKPGKAPNLLIYGASSLQSGVPSRFSGSGSGTDFTLTISSLQPGDFATYYCQHSYSTPFTFGGGTKVEIK
ELISA (T/B): 7

B11: M27-B12 (Fab, V domains shown)
VH: EVQLLESGGGLVQPGGSLRLSCAASGFTFSWYQMMWVRQAPGKGLEWVSSISPSGGITEYADSVKGRFTISRDNSKNTLYLQMNSLRAEDTAVYYCARDRSSGWYYYGMDVWGQGTTVTVSS
VL: QYELTQPPAVSVSPGQTATITCSGDKLGDEYAAWYQQKPGQSPVLVIYQDRKRPSGIPERFSGSNFGNTATLTITGTQVMDEADYYCQAWGKRNVVFGGGTKLTVL
ELISA (T/B): 2.3

B13: M27-G01 (Fab, V domains shown)
VH: EVQLLESGGGLVQPGGSLRLSCAASGFTFSLYRMFWVRQAPGKGLEWVSSIWSSGGPTMYADSVKGRFTISRDNSKNTLYLQMNSLRAEDTAVYYCAREYPSTYYFDYWGQGTLVTVSS
VL: B12 VL with R31T, A50G, T53S, E55Q, T56S, T76S, T77S, V84T, T94D, E105D
ELISA (T/B): 31.4

B17: M11-G12 (Fab, V domains shown)
VH: EVQLLESGGGLVQPGGSLRLSCAASGFTFSQYPMNWVRQAPGKGLEWVSSISSSGGFTTYADSVKGRFTISRDNSKNTLYLQMNSLRAEDTAVYYCAREEQQGGFDYWGQGTLVTVSS
VL: DIQMTQSPSSLSAFVGDRVSITCRASQTISVYVNWYQHKSGQAPKLLIYGASSLQSGVPSRFSGSGSGTDFTLTISSLQPEDFATYFCQQSYSIPFTFGGGTDVQIR
ELISA (T/B): 4.9
